In patent publication US20140193417A1 (LUDWIG INSTITUTE FOR CANCER RESEARCH, published 2014):

Tests used:
[1] = biological target: T1, sodium-dependent phosphate transport protein 2b (NaPi2b, SLC34A2), human, endogenous (human, UniProt O95436 1-690); assay: mixed hemadsorption assay (MHA) on SK-RC-33 renal cancer cells
T1 construct: whole, on cells; Naturally expressed, N-glycosylated membrane protein of human cancer cell lines (OVCAR-3, SK-RC-18 and others) and tissues; used on intact cells (MHA, flow cytometry), in cell or tissue lysates (Western blot, immunoprecipitation) and in tissue sections; also called MX35 antigen; NaPi2b/MX35
T1 sequence (looked up): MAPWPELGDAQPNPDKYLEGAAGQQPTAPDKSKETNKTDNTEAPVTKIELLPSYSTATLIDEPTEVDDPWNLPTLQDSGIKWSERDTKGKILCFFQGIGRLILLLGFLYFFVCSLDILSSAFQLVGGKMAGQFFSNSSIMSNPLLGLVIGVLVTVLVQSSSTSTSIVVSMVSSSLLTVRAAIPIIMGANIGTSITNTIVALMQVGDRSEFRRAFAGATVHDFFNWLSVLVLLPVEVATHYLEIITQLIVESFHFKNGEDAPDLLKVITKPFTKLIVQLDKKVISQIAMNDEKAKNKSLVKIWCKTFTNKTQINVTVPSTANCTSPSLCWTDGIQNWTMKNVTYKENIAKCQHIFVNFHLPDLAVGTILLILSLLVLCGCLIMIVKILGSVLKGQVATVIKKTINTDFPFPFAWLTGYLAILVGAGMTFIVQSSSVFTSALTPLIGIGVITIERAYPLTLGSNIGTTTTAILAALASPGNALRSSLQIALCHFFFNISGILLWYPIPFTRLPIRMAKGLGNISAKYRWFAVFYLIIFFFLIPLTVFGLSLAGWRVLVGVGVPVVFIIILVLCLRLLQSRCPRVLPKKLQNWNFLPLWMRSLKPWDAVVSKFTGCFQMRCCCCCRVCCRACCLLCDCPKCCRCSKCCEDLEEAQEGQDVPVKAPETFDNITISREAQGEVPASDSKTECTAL
Source text: A panel of cancer cell lines was co-typed for SLC34A2 mRNA expression by RT-PCR and for cell surface expression of MX35 protein antigen in a mixed hemadsorption assay (MHA) using mAb MX35 as probe. In addition, cell lysates were probed by Western blot analysis for MX35 expression. A panel of cancer cell lines with known expression of MX35 antigen was included. Strong expression of SLC34A2 mRNA correlated with MX35 antigen cell surface expression in all cells analyzed (Table 1). No such correlation was found for the Zinc-finger protein 638 (data not shown).

[2] = biological target: T2, His-NaPi2b-ECD (His-tagged aa 188-361 of NaPi2b, Sf9 insect cells) (human, UniProt O95436 188-361); assay: Western blot
T2 construct: range 188-361; Baculovirus expression; also called His-tagged protein in Sf9 insect cells; not shown: His tag
T2 sequence (looked up): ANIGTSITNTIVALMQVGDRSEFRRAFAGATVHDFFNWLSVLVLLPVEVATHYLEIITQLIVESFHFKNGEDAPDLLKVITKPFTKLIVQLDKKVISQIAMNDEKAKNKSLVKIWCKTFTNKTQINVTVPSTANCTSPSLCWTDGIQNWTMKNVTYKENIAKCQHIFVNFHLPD

[3] = biological target: T3, GST/NaPi2b-L fusion protein (aa 188-361 of NaPi2b) (human, UniProt O95436 188-361); assay: Western blot
T3 construct: range 188-361; GST is put first here (pGEX vector); also called GST-fusion protein (covering aa 188-361 of NaPi2b); bacterial fusion protein; not shown: glutathione S-transferase (GST) tag of vector pGEX4T1
T3 sequence (looked up): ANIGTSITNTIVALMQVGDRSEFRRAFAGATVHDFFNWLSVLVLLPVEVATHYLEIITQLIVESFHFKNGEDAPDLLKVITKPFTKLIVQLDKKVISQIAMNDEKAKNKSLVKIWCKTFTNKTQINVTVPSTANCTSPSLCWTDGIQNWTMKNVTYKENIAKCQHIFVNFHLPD

[4] = biological target: T4, synthetic 29mer peptide representing amino acids 312-340 of the NaPi2b protein (human); assay: peptide ELISA and dot blot
T4 construct: no end modifications stated
T4 peptide: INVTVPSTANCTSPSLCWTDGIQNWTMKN

[5] = biological target: T5, GST/NaPi2b-4L fusion protein (311-340aa) (human, UniProt O95436 311-340); assay: Western blot of truncated GST fusion proteins
T5 construct: Expressed in E. coli; not shown: glutathione S-transferase (GST) tag of vector pGEX4T1
T5 chain (looked up): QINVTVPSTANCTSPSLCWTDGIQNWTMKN

[6] = biological target: T6, NaPi2b 312-340 array peptide with Ala at 328, Ac-INVTVPSTANCTSPSLAWTDGIQNWTMKN-amide (human, N-terminal acetyl (Ac-), C-terminal amide); assay: synthetic peptide membrane array, 1 ug/ml antibody
T6 peptide: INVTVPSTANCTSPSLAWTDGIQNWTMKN
Protocol: (§1) For epitope mapping, membranes were incubated for 3 hours with 1 ug/ml primary antibody, followed by incubation with HRP-labeled goat anti-mouse polyclonal antibodies (Jackson ImmunoResearch Laboratories, West Grove, Pa.) for 2 hours. Bound antibody was visualized by chemiluminescence (Western Lightning Plus). For epitope mapping under reducing condition, membranes were incubated in 1 mM DTT for 1 hour at room temperature, and then washed extensively prior to antibody incubation.

[7] = biological target: T7, NaPi2b 312-340 array peptide with Ala at 322, Ac-INVTVPSTANATSPSLCWTDGIQNWTMKN-amide (human, N-terminal acetyl (Ac-), C-terminal amide); assay: synthetic peptide membrane array, 1 ug/ml antibody
T7 peptide: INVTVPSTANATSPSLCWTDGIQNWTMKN
Protocol: as §1

[8] = biological target: T8, NaPi2b 324-338 array peptide Ac-SPSLCWTDGIQNWTM-amide (human); assay: synthetic peptide membrane array, 1 ug/ml antibody
T8 peptide: Ac-SPSLCWTDGIQNWTM-NH2
Protocol: as §1

[9] = biological target: T9, NaPi2b 312-340 array peptide with Ala at 322 and 328, Ac-INVTVPSTANATSPSLAWTDGIQNWTMKN-amide (human, N-terminal acetyl (Ac-), C-terminal amide); assay: synthetic peptide membrane array, 1 ug/ml antibody
T9 peptide: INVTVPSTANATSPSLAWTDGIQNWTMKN
Protocol: as §1

[10] = biological target: T10, NaPi2b 312-340 array peptide Ac-INVTVPSTANCTSPSLCWTDGIQNWTMKN-amide (human, N-terminal acetyl (Ac-), C-terminal amide); assay: synthetic peptide membrane array, 1 ug/ml antibody
T10 peptide: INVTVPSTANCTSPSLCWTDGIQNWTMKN
Protocol: as §1

Measured: binding result

B1: Murine mAb MX35 (IgG1) (antibody, V domains shown)
VH: QVQLKQSGAELVKPGASVKMSCKASGYTFTGYNIHWVKQTPGQGLEWIGAIYPGNGDTSYKQKFRGKASLTADTSSSTVYMQLSSLTSEDSAVYYCARGETARATFAYWGQGTLVTVSA
VL: DIQMTQTTSSLPASLGDRVTISCSASQDIGNFLNWYQQKPDGTVKVLIYYTSSLYSGVPSRFSGSGSGTDYSLTISNLEPEDIATYYCQQYSKLPLTFGAGTKLELKR
notes: also called MX35 MAb; monoclonal antibody MX35
binds: [1] | [2] | [3] | [4] | [5] | [6] | [7] | [8] | [9] | [10]
